From US20160096892A1 (Novartis, published 2016) come the findings set out here.

For this assay, the target named is T1, recombinant Fc-tagged hsCD33 (human, UniProt P20138 18-259).
T1 construct: Soluble staining reagent, detected with a PE-conjugated Fc-specific secondary antibody; not shown: Fc tag
The assay can be described thus: flow cytometry; JNL cells displaying the scFv CAR, recombinant Fc-tagged hsCD33, PE anti-Fc secondary. As to the method: FIG. 32 is an image depicting cross-reactivity of T cells expressing scFvs targeting CD33 to cynomolgus CD33 (cyCD33) by flow cytometry. JNL cells transduced with a lentiviral vector expressing scFv's raised against hsCD33 were incubated with either recombinant Fc-tagged hsCD33 (dotted line) or cyCD33 (solid line) followed by incubation with an Fc-specific secondary antibody conjugated to phycoerythrin.
Finally, scFv cross-reactivity to cynomolgus CD33 (cyCD33) was assessed by flow cytometry as depicted in FIG. 32. JNL cells transduced with a lentiviral vector expressing scFv's raised against hsCD33 were incubated with either recombinant Fc-tagged hsCD33 (red line) or cyCD33 (blue line) followed by incubation with an Fc-specific secondary antibody conjugated to phycoerythrin. While scFv clones CD33-1, -2, -3, -4, -5, -6, -7, -9, and CD33-UPenn were capable of binding hsCD33, we note that only scFv clone CD33-5 appeared to be cross-reactive to both hsCD33 and cyCD33 (FIG. 32).
In general terms: A flow cytometer gives signals particle by particle.

T1 sequence (P20138 18-259 limits assumed): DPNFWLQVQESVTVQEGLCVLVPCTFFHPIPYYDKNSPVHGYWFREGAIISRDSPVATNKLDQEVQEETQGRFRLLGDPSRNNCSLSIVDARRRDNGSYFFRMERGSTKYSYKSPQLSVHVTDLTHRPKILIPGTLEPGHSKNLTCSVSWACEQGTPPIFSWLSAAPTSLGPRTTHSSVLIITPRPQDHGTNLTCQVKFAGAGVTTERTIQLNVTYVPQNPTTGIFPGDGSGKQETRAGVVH

B1: CD33-UPenn (scFv based on the sequence of Mylotarg; humanized My96) (scFv, not shown: small tags and cut ends)
chain: EIVLTQSPGSLAVSPGERVTMSCKSSQSVFFSSSQKNYLAWYQQIPGQSPRLLIYWASTRESGVPDRFTGSGSGTDFTLTISSVQPEDLAIYYCHQYLSSRTFGQGTKLEIKRGGGGSGGGGSSGGGSQVQLQQPGAEVVKPGASVKMSCKASGYTFTSYYIHWIKQTPGQGLEWVGVIYPGNDDISYNQKFQGKATLTADKSSTTAYMQLSSLTSEDSAVYYCAREVRLRYFDVWGQGTTVTVSS
notes: also called CAR33-UPenn
Regarding B1, the binding result is on record as “binds”.
